The source of these data is article PMC10101019.

This assay has as its target DENV-2 particles (dengue virus 2).

B1: Trx-tagged mucin protein of Aedes aegypti (natural protein)
chain: MQTFACICLISILISESFGKFDTPADPVFSDDVTDYDSPSGIDYYDVKDYPMIPGELNVYRKTKPGGLLPSSDVDMKGKMLTSKEVTTKPRNIPTRQHRVQNRIRKPARFSTVVPLPTAALTAPQCILQRTTPKPLWRREGGRVIIDGSDPNIDIFKVMRESRRRPTEAPKPTGNLPMRDIVGNEIKPETASNQFLVLGSVLRCRETKQEVHEHRTRNSRVEISDPTVTGLTVEYPPNIIRLTHRFESTSTGGKAFVFRTMNGKQGILKLKWYSCPTRNSG
B1 registered a DENV-2 titer by focus-forming assay 6 days after microinjection of DENV-2 particles with anti-mucin antibodies into Ae. aegypti, against DENV-2 with PBS or pre-immune serum (% reduction in DENV-2 titer) of 12.5.
